The results in this text go back to US20260001891A1 (KEYMED BIOSCIENCES CHENGDU, published 2026).

The labels stand for the following.
B1: ADC-126 (antibody, human IgG1, V domains shown)
VH: QVQLQQSGAEVKKPGSSVKVSCKASGYTFTNYYIYWVRQAPGQGLEWIGGINPTSGGSNFNEKFKTRVTITVDESTNTAYMELSSLRSEDTAFYFCARQGLWFDSDGRGFDFWGQGSTVTVSS
VL: DIQMTQSPSSLSASVGDRVTITCRSSQNIVHSNGNTYLDWYQQTPGKAPKLLIYKVSNRFSGVPSRFSGSGSGTDFTFTISSLQPEDIATYYCFQYSHVPWTFGQGTKLQITR
modifications: linker-drug LD-105 (maleimide) coupled to cysteine sulfhydryls after TCEP reduction; average drug loading y=4.96 per antibody; positions not given
B2: ADC-128 (antibody, human IgG1, V domains shown)
VH: B1 VH
VL: B1 VL
modifications: linker-drug LD-13 coupled to cysteine sulfhydryls after TCEP reduction; average drug loading y=7.62 per antibody; positions not given
B3: ADC-129 (antibody, human IgG1, V domains shown)
VH: B1 VH
VL: B1 VL
modifications: linker-drug LD-99 coupled to cysteine sulfhydryls after TCEP reduction; average drug loading y=7.11 per antibody; positions not given

The target in the test is EGFR (human (endogenous on human cancer cell …, UniProt P00533 25-1210)). In words: cell-based or functional assay.
In the case of B1, the “IC50 of in vitro proliferation inhibition, EGFR-positive MDA-MB-468 cells (CCK8, 6 days)” value is 0.21 nM. For B2, the “IC50 of in vitro proliferation inhibition, EGFR-positive MDA-MB-468 cells (CCK8, 6 days)” value turned out to be 0.21 nM. With B3, the “IC50 of in vitro proliferation inhibition, EGFR-positive MDA-MB-468 cells (CCK8, 6 days)” value amounted to 0.2 nM.
